{
  "source": "paper doi:10.1101/2023.10.12.561995",
  "about": "(bioRxiv, 2023)",
  "key": {"[1]": {"target": "T1, SARS-CoV-2 RBD (wildtype), residues 319-541 of S-protein (SARS-CoV-2 wildtype, UniProt P0DTC2)", "experiment": "BLI"}, "[2]": {"target": "T1, SARS-CoV-2 RBD (wildtype), residues …", "experiment": "cell-based or functional assay"}},
  "data": [
    {"binder": "R1-26 (mAb, human IgG1) (antibody, V domains shown) VH: EVQLVESGGGLVQPGGSLRLSCAASGFTFSSYWMSWVRQAPGKGLEWVANIKQDGSEKYYVDSVKGRFTISRDNAKNSLYLQMNSLRAEDTAVYYCARGQLGPWVGVDYWGQGTLVTVSS VL: NFMLTQPHSVSESPGKTVTISCTGSSGSIASNYVQWYQQRPGSAPTTVIYEDNQRPSGVPDRFSGSIDSSSNSASLTISGLKTEDEADYYCQSYDSSNWVFGGGTQLTVL", "values": [
      {"measurement": "Kd", "setting": "[1]", "result": 3.8, "unit": "nM"},
      {"measurement": "neutralisation of a pseudovirus displaying WT SARS-CoV-2 S-protein, IC50", "setting": "[2]", "result": 2.7, "unit": "nM"}
    ]}
  ]
}
